B1: NIgG4B2A1(G4S)3 (Fc fusion)
chain 1: QVQLVESGGGLVQAGGSLRLSCAVFGSTFSNNVADWYRQAPGKQRELVARISASGATREYGDSVKGRFTISRDDAKNTMYLQMNNLKPEDTAVYRCHKIEWEDLSRKDYWGQGTQVTVSGGGGSGGGGSGGGGSGPPCPPCPAPEFLGGPSVFLFPPKPKDTLMISRTPEVTCVVVDVSQEDPEVQFNWYVDGVEVHNAKTKPREEQFNSTYRVVSVLTVLHQDWLNGKEYKCKVSNKGLPSSIEKTISKAKGQPREPQVYTLPPCQEEMTKNQVSLWCLVKGFYPSDIAVEWESNGQPENNYKTTPPVLDSDGSFFLYSRLTVDKSRWQEGNVFSCSVMHEALHNHYTQKSLSLSLGK
chain 2: EVQLLESGGGLVQPGGSLRLSCAASGFTFGNYDMAWVRQAPGKRPEWVSSIDTGGDITHYADSVKGRFTISRDNAKNTLYLQMNSLRPEDTAVYWCATDEEYALGPNEFDYYGQGTLVTVSSGGGGSGGGGSGGGGSGPPCPPCPAPEFLGGPSVFLFPPKPKDTLMISRTPEVTCVVVDVSQEDPEVQFNWYVDGVEVHNAKTKPREEQFNSTYRVVSVLTVLHQDWLNGKEYKCKVSNKGLPSSIEKTISKAKGQPREPQVCTLPPSQEEMTKNQVSLSCAVKGFYPSDIAVEWESNGQPENNYKTTPPVLDSDGSFFLVSRLTVDKSRWQEGNVFSCSVMHEALHNHYTQKSLSLSLGK
B2: CIgG4B2A1(RS) (Fc fusion)
chain 1: GPPCPPCPAPEFLGGPSVFLFPPKPKDTLMISRTPEVTCVVVDVSQEDPEVQFNWYVDGVEVHNAKTKPREEQFNSTYRVVSVLTVLHQDWLNGKEYKCKVSNKGLPSSIEKTISKAKGQPREPQVYTLPPCQEEMTKNQVSLWCLVKGFYPSDIAVEWESNGQPENNYKTTPPVLDSDGSFFLYSRLTVDKSRWQEGNVFSCSVMHEALHNHYTQKSLSLSLGKRSQVQLVESGGGLVQAGGSLRLSCAVFGSTFSNNVADWYRQAPGKQRELVARISASGATREYGDSVKGRFTISRDDAKNTMYLQMNNLKPEDTAVYRCHKIEWEDLSRKDYWGQGTQVTVS
chain 2: GPPCPPCPAPEFLGGPSVFLFPPKPKDTLMISRTPEVTCVVVDVSQEDPEVQFNWYVDGVEVHNAKTKPREEQFNSTYRVVSVLTVLHQDWLNGKEYKCKVSNKGLPSSIEKTISKAKGQPREPQVCTLPPSQEEMTKNQVSLSCAVKGFYPSDIAVEWESNGQPENNYKTTPPVLDSDGSFFLVSRLTVDKSRWQEGNVFSCSVMHEALHNHYTQKSLSLSLGKRSEVQLLESGGGLVQPGGSLRLSCAASGFTFGNYDMAWVRQAPGKRPEWVSSIDTGGDITHYADSVKGRFTISRDNAKNTLYLQMNSLRPEDTAVYWCATDEEYALGPNEFDYYGQGTLVTVSS
B3: CIgG4B3A1(RS) (Fc fusion)
chain 1: GPPCPPCPAPEFLGGPSVFLFPPKPKDTLMISRTPEVTCVVVDVSQEDPEVQFNWYVDGVEVHNAKTKPREEQFNSTYRVVSVLTVLHQDWLNGKEYKCKVSNKGLPSSIEKTISKAKGQPREPQVYTLPPCQEEMTKNQVSLWCLVKGFYPSDIAVEWESNGQPENNYKTTPPVLDSDGSFFLYSRLTVDKSRWQEGNVFSCSVMHEALHNHYTQKSLSLSLGKRSDVQLQESGGGLVQAGGSLRLSCAASGFIFRLAGMSWVRQAPGKGFEWVSGITMDGSTTNYADSVKGRFTISRDNSKNRLYLQMNSLKPEDTAVYYCARGAKGGYNDPRGQGTQVTVS
chain 2: GPPCPPCPAPEFLGGPSVFLFPPKPKDTLMISRTPEVTCVVVDVSQEDPEVQFNWYVDGVEVHNAKTKPREEQFNSTYRVVSVLTVLHQDWLNGKEYKCKVSNKGLPSSIEKTISKAKGQPREPQVCTLPPSQEEMTKNQVSLSCAVKGFYPSDIAVEWESNGQPENNYKTTPPVLDSDGSFFLVSRLTVDKSRWQEGNVFSCSVMHEALHNHYTQKSLSLSLGKRSEVQLLESGGGLVQPGGSLRLSCAASGFTFGNYDMAWVRQAPGKRPEWVSSIDTGGDITHYADSVKGRFTISRDNAKNTLYLQMNSLRPEDTAVYWCATDEEYALGPNEFDYYGQGTLVTVSS
B4: CIgG4B2A1(G4S)1 (Fc fusion)
chain 1: GPPCPPCPAPEFLGGPSVFLFPPKPKDTLMISRTPEVTCVVVDVSQEDPEVQFNWYVDGVEVHNAKTKPREEQFNSTYRVVSVLTVLHQDWLNGKEYKCKVSNKGLPSSIEKTISKAKGQPREPQVYTLPPCQEEMTKNQVSLWCLVKGFYPSDIAVEWESNGQPENNYKTTPPVLDSDGSFFLYSRLTVDKSRWQEGNVFSCSVMHEALHNHYTQKSLSLSLGKGGGGSQVQLVESGGGLVQAGGSLRLSCAVFGSTFSNNVADWYRQAPGKQRELVARISASGATREYGDSVKGRFTISRDDAKNTMYLQMNNLKPEDTAVYRCHKIEWEDLSRKDYWGQGTQVTVS
chain 2: GPPCPPCPAPEFLGGPSVFLFPPKPKDTLMISRTPEVTCVVVDVSQEDPEVQFNWYVDGVEVHNAKTKPREEQFNSTYRVVSVLTVLHQDWLNGKEYKCKVSNKGLPSSIEKTISKAKGQPREPQVCTLPPSQEEMTKNQVSLSCAVKGFYPSDIAVEWESNGQPENNYKTTPPVLDSDGSFFLVSRLTVDKSRWQEGNVFSCSVMHEALHNHYTQKSLSLSLGKGGGGSEVQLLESGGGLVQPGGSLRLSCAASGFTFGNYDMAWVRQAPGKRPEWVSSIDTGGDITHYADSVKGRFTISRDNAKNTLYLQMNSLRPEDTAVYWCATDEEYALGPNEFDYYGQGTLVTVSS
B5: CIgG4B3A1(G4S)1 (Fc fusion)
chain 1: GPPCPPCPAPEFLGGPSVFLFPPKPKDTLMISRTPEVTCVVVDVSQEDPEVQFNWYVDGVEVHNAKTKPREEQFNSTYRVVSVLTVLHQDWLNGKEYKCKVSNKGLPSSIEKTISKAKGQPREPQVYTLPPCQEEMTKNQVSLWCLVKGFYPSDIAVEWESNGQPENNYKTTPPVLDSDGSFFLYSRLTVDKSRWQEGNVFSCSVMHEALHNHYTQKSLSLSLGKGGGGSDVQLQESGGGLVQAGGSLRLSCAASGFIFRLAGMSWVRQAPGKGFEWVSGITMDGSTTNYADSVKGRFTISRDNSKNRLYLQMNSLKPEDTAVYYCARGAKGGYNDPRGQGTQVTVS
chain 2: GPPCPPCPAPEFLGGPSVFLFPPKPKDTLMISRTPEVTCVVVDVSQEDPEVQFNWYVDGVEVHNAKTKPREEQFNSTYRVVSVLTVLHQDWLNGKEYKCKVSNKGLPSSIEKTISKAKGQPREPQVCTLPPSQEEMTKNQVSLSCAVKGFYPSDIAVEWESNGQPENNYKTTPPVLDSDGSFFLVSRLTVDKSRWQEGNVFSCSVMHEALHNHYTQKSLSLSLGKGGGGSEVQLLESGGGLVQPGGSLRLSCAASGFTFGNYDMAWVRQAPGKRPEWVSSIDTGGDITHYADSVKGRFTISRDNAKNTLYLQMNSLRPEDTAVYWCATDEEYALGPNEFDYYGQGTLVTVSS
notes: also called CIgG4B3A1(GS)1
B6: CIgG4B2A1(G4S)2 (Fc fusion)
chain 1: GPPCPPCPAPEFLGGPSVFLFPPKPKDTLMISRTPEVTCVVVDVSQEDPEVQFNWYVDGVEVHNAKTKPREEQFNSTYRVVSVLTVLHQDWLNGKEYKCKVSNKGLPSSIEKTISKAKGQPREPQVYTLPPCQEEMTKNQVSLWCLVKGFYPSDIAVEWESNGQPENNYKTTPPVLDSDGSFFLYSRLTVDKSRWQEGNVFSCSVMHEALHNHYTQKSLSLSLGKGGGGSGGGGSQVQLVESGGGLVQAGGSLRLSCAVFGSTFSNNVADWYRQAPGKQRELVARISASGATREYGDSVKGRFTISRDDAKNTMYLQMNNLKPEDTAVYRCHKIEWEDLSRKDYWGQGTQVTVS
chain 2: GPPCPPCPAPEFLGGPSVFLFPPKPKDTLMISRTPEVTCVVVDVSQEDPEVQFNWYVDGVEVHNAKTKPREEQFNSTYRVVSVLTVLHQDWLNGKEYKCKVSNKGLPSSIEKTISKAKGQPREPQVCTLPPSQEEMTKNQVSLSCAVKGFYPSDIAVEWESNGQPENNYKTTPPVLDSDGSFFLVSRLTVDKSRWQEGNVFSCSVMHEALHNHYTQKSLSLSLGKGGGGSGGGGSEVQLLESGGGLVQPGGSLRLSCAASGFTFGNYDMAWVRQAPGKRPEWVSSIDTGGDITHYADSVKGRFTISRDNAKNTLYLQMNSLRPEDTAVYWCATDEEYALGPNEFDYYGQGTLVTVSS
B7: CIgG4B3A1(G4S)2 (Fc fusion)
chain 1: GPPCPPCPAPEFLGGPSVFLFPPKPKDTLMISRTPEVTCVVVDVSQEDPEVQFNWYVDGVEVHNAKTKPREEQFNSTYRVVSVLTVLHQDWLNGKEYKCKVSNKGLPSSIEKTISKAKGQPREPQVYTLPPCQEEMTKNQVSLWCLVKGFYPSDIAVEWESNGQPENNYKTTPPVLDSDGSFFLYSRLTVDKSRWQEGNVFSCSVMHEALHNHYTQKSLSLSLGKGGGGSGGGGSDVQLQESGGGLVQAGGSLRLSCAASGFIFRLAGMSWVRQAPGKGFEWVSGITMDGSTTNYADSVKGRFTISRDNSKNRLYLQMNSLKPEDTAVYYCARGAKGGYNDPRGQGTQVTVS
chain 2: GPPCPPCPAPEFLGGPSVFLFPPKPKDTLMISRTPEVTCVVVDVSQEDPEVQFNWYVDGVEVHNAKTKPREEQFNSTYRVVSVLTVLHQDWLNGKEYKCKVSNKGLPSSIEKTISKAKGQPREPQVCTLPPSQEEMTKNQVSLSCAVKGFYPSDIAVEWESNGQPENNYKTTPPVLDSDGSFFLVSRLTVDKSRWQEGNVFSCSVMHEALHNHYTQKSLSLSLGKGGGGSGGGGSEVQLLESGGGLVQPGGSLRLSCAASGFTFGNYDMAWVRQAPGKRPEWVSSIDTGGDITHYADSVKGRFTISRDNAKNTLYLQMNSLRPEDTAVYWCATDEEYALGPNEFDYYGQGTLVTVSS
notes: also called CIgG4B3A1(GS)2
B8: CIgG4B2A1(G4S)3 (Fc fusion)
chain 1: GPPCPPCPAPEFLGGPSVFLFPPKPKDTLMISRTPEVTCVVVDVSQEDPEVQFNWYVDGVEVHNAKTKPREEQFNSTYRVVSVLTVLHQDWLNGKEYKCKVSNKGLPSSIEKTISKAKGQPREPQVYTLPPCQEEMTKNQVSLWCLVKGFYPSDIAVEWESNGQPENNYKTTPPVLDSDGSFFLYSRLTVDKSRWQEGNVFSCSVMHEALHNHYTQKSLSLSLGKGGGGSGGGGSGGGGSQVQLVESGGGLVQAGGSLRLSCAVFGSTFSNNVADWYRQAPGKQRELVARISASGATREYGDSVKGRFTISRDDAKNTMYLQMNNLKPEDTAVYRCHKIEWEDLSRKDYWGQGTQVTVS
chain 2: GPPCPPCPAPEFLGGPSVFLFPPKPKDTLMISRTPEVTCVVVDVSQEDPEVQFNWYVDGVEVHNAKTKPREEQFNSTYRVVSVLTVLHQDWLNGKEYKCKVSNKGLPSSIEKTISKAKGQPREPQVCTLPPSQEEMTKNQVSLSCAVKGFYPSDIAVEWESNGQPENNYKTTPPVLDSDGSFFLVSRLTVDKSRWQEGNVFSCSVMHEALHNHYTQKSLSLSLGKGGGGSGGGGSGGGGSEVQLLESGGGLVQPGGSLRLSCAASGFTFGNYDMAWVRQAPGKRPEWVSSIDTGGDITHYADSVKGRFTISRDNAKNTLYLQMNSLRPEDTAVYWCATDEEYALGPNEFDYYGQGTLVTVSS

A value given as a limit tells only on which side of the number the result lay.

T1 sequence (P01854 other isoform, or with tags, fused parts or gaps): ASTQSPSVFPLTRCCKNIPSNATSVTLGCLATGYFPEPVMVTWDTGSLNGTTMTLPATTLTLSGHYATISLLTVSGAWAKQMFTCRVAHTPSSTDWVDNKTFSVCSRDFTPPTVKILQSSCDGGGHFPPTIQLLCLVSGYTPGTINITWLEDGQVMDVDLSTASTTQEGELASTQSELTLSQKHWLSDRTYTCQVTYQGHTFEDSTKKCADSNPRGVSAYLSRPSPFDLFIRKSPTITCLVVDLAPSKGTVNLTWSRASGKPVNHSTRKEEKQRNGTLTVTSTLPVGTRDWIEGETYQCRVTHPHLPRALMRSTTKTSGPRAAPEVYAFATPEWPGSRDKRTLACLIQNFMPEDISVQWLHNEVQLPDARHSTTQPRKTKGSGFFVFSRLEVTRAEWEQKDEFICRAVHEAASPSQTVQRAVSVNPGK

This experiment has as its target T1, recombinant human IgE (human, UniProt P01854-1 1-428).
T1 construct: made in-house (ALK); preloaded on immobilised FcεRIα in the displacement ELISA
Description: IgE-FcεRIα displacement ELISA. The method, boiled down:
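Streptavidin-coated plates carried site-specifically biotinylated recombinant human FcεRIα, loaded with recombinant human IgE at 13 ng/ml. sdAbs in a pM–μM series were added for 1 h, and displaced IgE was washed off. Percent displacement was the signal reduction versus the no-sdAb control, giving EC50 and maximal effect.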
On the technique in general: In an ELISA, binding on a coated surface is turned into a signal by an enzyme label.
For B1, the Max effect is over 95%.

For B2, the EC50 (commonly the concentration that produces a half-maximal response) was 130 nM and the Max effect is 70%.

Consider B3, for which the Max effect amounted to 0%.

On to B4, for which the EC50 turned out to be 0.8 nM and the Max effect was over 95%.

Take B5: the Max effect was determined as 45%.

Take B6: the 50% effective concentration (EC50) worked out at 0.7 nM and the Max effect was over 95%.

In the case of B7, the EC50 worked out at 32 nM and the Max effect was 85%.

Take B8: the EC50 was found to be 2.1 nM and the Max effect was over 95%.

Values taken from patent US20250171562A1 (ALK ABELL, published 2025).
